# Measured values taken from US20260209386A1 (MYTHIC THERAPEUTICS, published 2026).
# T1: Human PTK7 Protein, His Tag (Acro Biosystems) (human, UniProt Q13308 31-704)
# T1 construct: Bought His-tagged recombinant human PTK7; also called CCK4; Tyrosine-protein kinase-like 7
# T1 sequence: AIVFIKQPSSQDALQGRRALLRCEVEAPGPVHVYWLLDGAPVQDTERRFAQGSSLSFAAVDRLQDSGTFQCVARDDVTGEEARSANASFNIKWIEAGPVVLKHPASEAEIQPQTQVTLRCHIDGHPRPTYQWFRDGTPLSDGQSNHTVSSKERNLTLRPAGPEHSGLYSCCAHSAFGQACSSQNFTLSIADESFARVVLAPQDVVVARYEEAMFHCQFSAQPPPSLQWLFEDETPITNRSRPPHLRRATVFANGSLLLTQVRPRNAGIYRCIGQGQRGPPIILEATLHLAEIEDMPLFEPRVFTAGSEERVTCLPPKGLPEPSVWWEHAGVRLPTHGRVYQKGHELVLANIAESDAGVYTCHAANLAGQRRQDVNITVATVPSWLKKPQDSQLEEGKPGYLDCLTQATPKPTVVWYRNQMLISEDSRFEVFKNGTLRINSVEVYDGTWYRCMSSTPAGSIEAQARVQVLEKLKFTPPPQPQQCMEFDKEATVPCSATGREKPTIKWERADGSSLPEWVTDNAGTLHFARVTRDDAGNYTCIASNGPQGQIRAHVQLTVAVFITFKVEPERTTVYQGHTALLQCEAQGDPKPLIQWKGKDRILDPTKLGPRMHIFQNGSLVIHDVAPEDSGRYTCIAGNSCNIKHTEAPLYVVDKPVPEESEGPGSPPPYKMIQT
# T2: Human PTK7 Protein, His Tag, Acro Biosystems (human, UniProt Q13308 31-704)
# T2 construct: Bought recombinant protein; also called CCK4; not shown: His tag
# T2 sequence: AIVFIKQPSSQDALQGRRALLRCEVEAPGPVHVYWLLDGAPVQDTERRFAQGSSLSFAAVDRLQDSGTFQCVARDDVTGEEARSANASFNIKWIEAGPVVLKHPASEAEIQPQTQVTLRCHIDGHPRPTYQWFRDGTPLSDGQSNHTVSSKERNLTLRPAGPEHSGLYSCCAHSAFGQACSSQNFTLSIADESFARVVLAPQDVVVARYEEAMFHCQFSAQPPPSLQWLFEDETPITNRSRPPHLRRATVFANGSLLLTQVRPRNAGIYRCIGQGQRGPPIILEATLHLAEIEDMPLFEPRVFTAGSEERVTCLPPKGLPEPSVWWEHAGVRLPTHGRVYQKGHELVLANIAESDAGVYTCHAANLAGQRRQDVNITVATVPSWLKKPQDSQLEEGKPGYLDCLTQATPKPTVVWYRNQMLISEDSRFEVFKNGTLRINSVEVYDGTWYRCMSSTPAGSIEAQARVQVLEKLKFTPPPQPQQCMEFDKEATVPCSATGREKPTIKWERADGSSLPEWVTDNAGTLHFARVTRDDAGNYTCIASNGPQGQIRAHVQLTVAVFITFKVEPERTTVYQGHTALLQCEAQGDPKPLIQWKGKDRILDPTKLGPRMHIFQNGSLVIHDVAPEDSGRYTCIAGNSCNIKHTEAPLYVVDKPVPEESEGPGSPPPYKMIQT
# Target: T1, Human PTK7 Protein, His Tag (Acro …)
# Assay: BLI (Octet), antibody on anti-human Fc sensor, 50 nM PTK7; 1 = pH dependent binding
row,binding result,Binder
1,binds,"MYT10969 (antibody, V domains shown, MYT9359 HC variant; captured on anti-human Fc sensor) VH: EVQLVESGGGLVQPGGSLRLSCTASGFSLSSYAMGWVRQAPGKGLEWVGFINAGGNTHYANWAKGRFTISRDTSKNTVYLQMNSLRAEDTAVYFCARRYSRASGWYDLWGQGTLVTVSS VL: EIVMTQSPSTLSASVGDRVIITCQASQSISSYLAWYQQKPGKAPKLLIYAASTLASGVPSRFSGSGSGAEFTLTISSLQPDDFATYYCQSYSYSSGIDYGDVFGQGTKLTVL"
2,binds,"MYT10963 (antibody, V domains shown, MYT9359 HC variant; captured on anti-human Fc sensor) VH: EVQLVESGGGLVQPGGSLRLSCTASGFSLSSYAMGWVRQAPGKGLEWVGFIHAGGNTYYANWAKGRFTISRDTSKNTVYLQMNSLRAEDTAVYFCARRYSRASGWYDLWGQGTLVTVSS VL: EIVMTQSPSTLSASVGDRVIITCQASQSISSYLAWYQQKPGKAPKLLIYAASTLASGVPSRFSGSGSGAEFTLTISSLQPDDFATYYCQSYSYSSGIDYGDVFGQGTKLTVL"
3,binds,"MYT10966 (antibody, V domains shown, MYT9359 HC variant; captured on anti-human Fc sensor) VH: EVQLVESGGGLVQPGGSLRLSCTASGFSLSSYAMGWVRQAPGKGLEWVGFINAGHNTYYANWAKGRFTISRDTSKNTVYLQMNSLRAEDTAVYFCARRYSRASGWYDLWGQGTLVTVSS VL: EIVMTQSPSTLSASVGDRVIITCQASQSISSYLAWYQQKPGKAPKLLIYAASTLASGVPSRFSGSGSGAEFTLTISSLQPDDFATYYCQSYSYSSGIDYGDVFGQGTKLTVL"
4,binds,"MYT10993 (antibody, V domains shown, MYT9359 LC variant; captured on anti-human Fc sensor) VH: EVQLVESGGGLVQPGGSLRLSCTASGFSLSSYAMGWVRQAPGKGLEWVGFINAGGNTYYANWAKGRFTISRDTSKNTVYLQMNSLRAEDTAVYFCARRYSRASGWYDLWGQGTLVTVSS VL: EIVMTQSPSTLSASVGDRVIITCQHSQSISSYLAWYQQKPGKAPKLLIYAASTLASGVPSRFSGSGSGAEFTLTISSLQPDDFATYYCQSYSYSSGIDYGDVFGQGTKLTVL"
5,binds,"MYT10959 (antibody, V domains shown, MYT9359 HC variant; captured on anti-human Fc sensor) VH: EVQLVESGGGLVQPGGSLRLSCTASGFSLSSYAHGWVRQAPGKGLEWVGFINAGGNTYYANWAKGRFTISRDTSKNTVYLQMNSLRAEDTAVYFCARRYSRASGWYDLWGQGTLVTVSS VL: EIVMTQSPSTLSASVGDRVIITCQASQSISSYLAWYQQKPGKAPKLLIYAASTLASGVPSRFSGSGSGAEFTLTISSLQPDDFATYYCQSYSYSSGIDYGDVFGQGTKLTVL"
6,binds,"MYT10991 (antibody, V domains shown, MYT9359 HC alanine variant; captured on anti-human Fc sensor) VH: EVQLVESGGGLVQPGGSLRLSCTASGFSLSSYAMGWVRQAPGKGLEWVGFINAGGNTYYANWAKGRFTISRDTSKNTVYLQMNSLRAEDTAVYFCARRYSRASGWYALWGQGTLVTVSS VL: EIVMTQSPSTLSASVGDRVIITCQASQSISSYLAWYQQKPGKAPKLLIYAASTLASGVPSRFSGSGSGAEFTLTISSLQPDDFATYYCQSYSYSSGIDYGDVFGQGTKLTVL"

# The remaining lines, values behind:
row,Binder,binding result
1,"MYT10951 (antibody, V domains shown, MYT9359 HC variant; captured on anti-human Fc sensor) VH: EVQLVESGGGLVQPGGSLRLSCTASHFSLSSYAMGWVRQAPGKGLEWVGFINAGGNTYYANWAKGRFTISRDTSKNTVYLQMNSLRAEDTAVYFCARRYSRASGWYDLWGQGTLVTVSS VL: EIVMTQSPSTLSASVGDRVIITCQASQSISSYLAWYQQKPGKAPKLLIYAASTLASGVPSRFSGSGSGAEFTLTISSLQPDDFATYYCQSYSYSSGIDYGDVFGQGTKLTVL",binds
2,"MYT10970 (antibody, V domains shown, MYT9359 HC variant; captured on anti-human Fc sensor) VH: EVQLVESGGGLVQPGGSLRLSCTASGFSLSSYAMGWVRQAPGKGLEWVGFINAGGNTYHANWAKGRFTISRDTSKNTVYLQMNSLRAEDTAVYFCARRYSRASGWYDLWGQGTLVTVSS VL: EIVMTQSPSTLSASVGDRVIITCQASQSISSYLAWYQQKPGKAPKLLIYAASTLASGVPSRFSGSGSGAEFTLTISSLQPDDFATYYCQSYSYSSGIDYGDVFGQGTKLTVL",binds
3,"MYT10974 (antibody, V domains shown, MYT9359 HC variant; captured on anti-human Fc sensor) VH: EVQLVESGGGLVQPGGSLRLSCTASGFSLSSYAMGWVRQAPGKGLEWVGFINAGGNTYYANWHKGRFTISRDTSKNTVYLQMNSLRAEDTAVYFCARRYSRASGWYDLWGQGTLVTVSS VL: EIVMTQSPSTLSASVGDRVIITCQASQSISSYLAWYQQKPGKAPKLLIYAASTLASGVPSRFSGSGSGAEFTLTISSLQPDDFATYYCQSYSYSSGIDYGDVFGQGTKLTVL",binds
4,"MYT10978 (antibody, V domains shown, MYT9359 HC variant; captured on anti-human Fc sensor) VH: EVQLVESGGGLVQPGGSLRLSCTASGFSLSSYAMGWVRQAPGKGLEWVGFINAGGNTYYANWAKGRFTISRDTSKNTVYLQMNSLRAEDTAVYFCAHRYSRASGWYDLWGQGTLVTVSS VL: EIVMTQSPSTLSASVGDRVIITCQASQSISSYLAWYQQKPGKAPKLLIYAASTLASGVPSRFSGSGSGAEFTLTISSLQPDDFATYYCQSYSYSSGIDYGDVFGQGTKLTVL",binds
5,"MYT10997 (antibody, V domains shown, MYT9359 LC variant; captured on anti-human Fc sensor) VH: EVQLVESGGGLVQPGGSLRLSCTASGFSLSSYAMGWVRQAPGKGLEWVGFINAGGNTYYANWAKGRFTISRDTSKNTVYLQMNSLRAEDTAVYFCARRYSRASGWYDLWGQGTLVTVSS VL: EIVMTQSPSTLSASVGDRVIITCQASQSHSSYLAWYQQKPGKAPKLLIYAASTLASGVPSRFSGSGSGAEFTLTISSLQPDDFATYYCQSYSYSSGIDYGDVFGQGTKLTVL",binds
6,"MYT10957 (antibody, V domains shown, MYT9359 HC variant; captured on anti-human Fc sensor) VH: EVQLVESGGGLVQPGGSLRLSCTASGFSLSSHAMGWVRQAPGKGLEWVGFINAGGNTYYANWAKGRFTISRDTSKNTVYLQMNSLRAEDTAVYFCARRYSRASGWYDLWGQGTLVTVSS VL: EIVMTQSPSTLSASVGDRVIITCQASQSISSYLAWYQQKPGKAPKLLIYAASTLASGVPSRFSGSGSGAEFTLTISSLQPDDFATYYCQSYSYSSGIDYGDVFGQGTKLTVL",binds
7,"MYT10962 (antibody, V domains shown, MYT9359 HC variant; captured on anti-human Fc sensor) VH: EVQLVESGGGLVQPGGSLRLSCTASGFSLSSYAMGWVRQAPGKGLEWVGFHNAGGNTYYANWAKGRFTISRDTSKNTVYLQMNSLRAEDTAVYFCARRYSRASGWYDLWGQGTLVTVSS VL: EIVMTQSPSTLSASVGDRVIITCQASQSISSYLAWYQQKPGKAPKLLIYAASTLASGVPSRFSGSGSGAEFTLTISSLQPDDFATYYCQSYSYSSGIDYGDVFGQGTKLTVL",binds
8,"MYT10980 (antibody, V domains shown, MYT9359 HC variant; captured on anti-human Fc sensor) VH: EVQLVESGGGLVQPGGSLRLSCTASGFSLSSYAMGWVRQAPGKGLEWVGFINAGGNTYYANWAKGRFTISRDTSKNTVYLQMNSLRAEDTAVYFCARRHSRASGWYDLWGQGTLVTVSS VL: EIVMTQSPSTLSASVGDRVIITCQASQSISSYLAWYQQKPGKAPKLLIYAASTLASGVPSRFSGSGSGAEFTLTISSLQPDDFATYYCQSYSYSSGIDYGDVFGQGTKLTVL",binds

# Target: T2, Human PTK7 Protein, His Tag, Acro …
# Assay: BLI (Octet), antibody on anti-human Fc sensor, 50 nM PTK7 at pH 7.4, dissociation at pH 7.4 or 5.4; 2 = substantially similar binding relative to parent
row,binding result,Binder
1,binds,"MYT10940 (antibody, V domains shown, MYT9345 variant, His at VL pos 92 (L3 02)) VH: EVQLVESGGGLVQPGGSLRLSCTASGFSLSNYVMNWVRQAPGKGLEWVGIIDSSGSTYYASWAKGRFTISRDTSKNTVYLQMNSLRAEDTAVYFCARGLYLWGQGTLVTVSS VL: EIVMTQSPSTLSASVGDRVIITCQSSQSVYNNNLLAWYQQKPGKAPKLLIYYTSNLASGVPSRFSGSGSGAEFTLTISSLQPDDFATYYCQHGYNGNIYAFGQGTKLTVL"
2,binds,"MYT10945 (antibody, V domains shown, MYT9345 variant, His at VL pos 97 (L3 07)) VH: EVQLVESGGGLVQPGGSLRLSCTASGFSLSNYVMNWVRQAPGKGLEWVGIIDSSGSTYYASWAKGRFTISRDTSKNTVYLQMNSLRAEDTAVYFCARGLYLWGQGTLVTVSS VL: EIVMTQSPSTLSASVGDRVIITCQSSQSVYNNNLLAWYQQKPGKAPKLLIYYTSNLASGVPSRFSGSGSGAEFTLTISSLQPDDFATYYCQGGYNGHIYAFGQGTKLTVL"
3,binds,"MYT10941 (antibody, V domains shown, MYT9345 variant, His at VL pos 93 (L3 03)) VH: EVQLVESGGGLVQPGGSLRLSCTASGFSLSNYVMNWVRQAPGKGLEWVGIIDSSGSTYYASWAKGRFTISRDTSKNTVYLQMNSLRAEDTAVYFCARGLYLWGQGTLVTVSS VL: EIVMTQSPSTLSASVGDRVIITCQSSQSVYNNNLLAWYQQKPGKAPKLLIYYTSNLASGVPSRFSGSGSGAEFTLTISSLQPDDFATYYCQGHYNGNIYAFGQGTKLTVL"
4,binds,"MYT10947 (antibody, V domains shown, MYT9345 variant, His at VL pos 99 (L3 09)) VH: EVQLVESGGGLVQPGGSLRLSCTASGFSLSNYVMNWVRQAPGKGLEWVGIIDSSGSTYYASWAKGRFTISRDTSKNTVYLQMNSLRAEDTAVYFCARGLYLWGQGTLVTVSS VL: EIVMTQSPSTLSASVGDRVIITCQSSQSVYNNNLLAWYQQKPGKAPKLLIYYTSNLASGVPSRFSGSGSGAEFTLTISSLQPDDFATYYCQGGYNGNIHAFGQGTKLTVL"
5,binds,"MYT10948 (antibody, V domains shown, MYT9345 variant, His at VL pos 100 (L3 10)) VH: EVQLVESGGGLVQPGGSLRLSCTASGFSLSNYVMNWVRQAPGKGLEWVGIIDSSGSTYYASWAKGRFTISRDTSKNTVYLQMNSLRAEDTAVYFCARGLYLWGQGTLVTVSS VL: EIVMTQSPSTLSASVGDRVIITCQSSQSVYNNNLLAWYQQKPGKAPKLLIYYTSNLASGVPSRFSGSGSGAEFTLTISSLQPDDFATYYCQGGYNGNIYHFGQGTKLTVL"
